Assay results as given in PMC2467505.

Legend:
Assay in all cases: purified protein
[1] = substrate: C[C@H](O)CC[C@H](C)O; settings: oxidation, 70°C, 50 mM glycine pH 10.5, 0.35 mM NADP+
[2] = substrate: CC(=O)CCC(C)=O; settings: reduction, 70°C, 0.1 M sodium phosphate pH 7.0, 0.35 mM NADPH
[3] = substrate: CCCC(C)O; settings: oxidation, 70°C, 50 mM glycine pH 10.5, 0.35 mM NADP+
[4] = substrate: CC(=O)C=O; settings: reduction, 70°C, 0.1 M sodium phosphate pH 7.0, 0.35 mM NADPH

B1: AdhA (Pyrococcus furiosus; INS1A) (protein)
chain: MAKVAVITGASRGIGEAIAKALAEDGYSLALGARSVDRLEKIAKELSEKHGVEVFYDYLDVSKPESVEEFARKTLAHFGDVDVVVANAGLGYFGRLEELTEEQFHEMIEVNLLGVWRTIKAFLNSLKRTGGVAIVVTSDVSARLLPYGGGYVATKWAARALVRTFQIENPDVRFFELRPGAVDTYFGGSKAGKPKEQGYLKPEEVAEAVKYLLRLPKDVRVEELMLRSIYQKPEY
Km [1]: 5.4 ± 0.3 mM
Vmax [1]: 12.8 µmol/min/mg
kcat/Km [1]: 1000 M⁻¹ s⁻¹
Km [2]: 56.4 ± 0.6 mM
Vmax [2]: 1.9 µmol/min/mg
kcat/Km [2]: 10 M⁻¹ s⁻¹
Km [3]: 30.3 ± 0.4 mM
Vmax [3]: 13.1 µmol/min/mg
kcat/Km [3]: 100 M⁻¹ s⁻¹
Km [4]: 1.2 ± 0.03 mM
Vmax [4]: 10.4 µmol/min/mg
kcat/Km [4]: 3800 M⁻¹ s⁻¹
